The text below walks through data of publication PMC6160459, “Identification of Peptide Mimotope Ligands for Natalizumab” (Scientific Reports, 2018).

The target of one test is Natalizumab. The test is described as follows: peptide array variant scan, natalizumab binding in arbitrary ELISA units. Conditions: chain shown with the change;, read off a plot. Background: In an ELISA, binding on a coated surface is turned into a signal by an enzyme label.
Test [1] addresses Ntz-06 synthetic peptide. The experiment in a line: ELISA; Protocol-2: biotinylated peptide at 1 µg/ml in TBS on streptavidin-coated wells; natalizumab in 2.5% BSA/1X casein/TBST (or diluted human serum) 1 h at RT; detected with anti-IgG4-HRP; apparent affinity.
Test [2] concerns the target Ntz-07 synthetic peptide. The test is described as above.
The next test deals with Ntz-04 synthetic peptide. The experiment in a line: BLI; Octet Red96; 10 µg/ml peptide immobilised on a streptavidin sensor; natalizumab in solution 1-600 nM, three-fold dilutions; TBS; apparent affinity. For orientation: In BLI a coated tip is dipped into the sample, and binding shifts an interference pattern.
Test [3] concerns the target Ntz-06 synthetic peptide. The test is described as above.
A further test addresses Ntz-02 synthetic peptide. The description is as above.
The target of a further test is Ntz-05 synthetic peptide. The test is described as above.
A further test deals with Ntz-01 synthetic peptide. Described as above.
Test [4] deals with Ntz-07 synthetic peptide. The description is as above.
In a further test the target is Ntz-03 synthetic peptide. Described as above.

Take ACPKNPSKFC [Ntz-02 parent peptide on the Pepscan array S4K]: the response in the test with Natalizumab (parent: est. 80) was 1900 mAU.

In the case of ACPKNPSKFC [Ntz-03 parent peptide on the Pepscan array N7S], the response in the test with Natalizumab (parent: est. 60) turned out to be 2300 mAU.

ACPMNPSKFC [Ntz-01 parent peptide on the Pepscan array E6P]: in the test with Natalizumab (parent: est. 1100), the response was 1500 mAU.

For the molecule ACPQNPSKFC [Ntz-02 parent peptide on the Pepscan array S4Q], in the test with Natalizumab (parent: est. 80), the response was determined as 1000 mAU.

As to ACPRNESKFC [Ntz-01 parent peptide on the Pepscan array H4R], the response with Natalizumab (parent: est. 1100) came to 2400 mAU.

B1: Natalizumab (antibody, V domains shown)
VH: QVQLVQSGAEVKKPGASVKVSCKASGFNIKDTYIHWVRQAPGQRLEWMGRIDPANGYTKYDPKFQGRVTITADTSASTAYMELSSLRSEDTAVYYCAREGYYGNYGVYAMDYWGQGTLVTVSS
VL: DIQMTQSPSSLSASVGDRVTITCKTSQDINKYMAWYQQTPGKAPRLLIHYTSALQPGIPSRFSGSGSGRDYTFTISSLQPEDIATYYCLQYDNLWTFGQGTKVEIK
As to B1, the fold improvement of apparent affinity over Ntz-01 with Ntz-06 synthetic peptide [1] is 1.7 fold. Besides, the fold improvement of apparent affinity over Ntz-02 in the test with Ntz-07 synthetic peptide [2] is 6.2 fold. Besides, the fold improvement of apparent affinity over Ntz-03 in the test with Ntz-07 synthetic peptide [2] came out at 14 fold. The Kd with Ntz-04 synthetic peptide is 6.03 nM; in the test with Ntz-06 synthetic peptide [3], 6.87 nM; with Ntz-02 synthetic peptide, 32.1 nM; with Ntz-05 synthetic peptide it was 10.5 nM; with Ntz-01 synthetic peptide, 29.1 nM; in the test with Ntz-07 synthetic peptide [4], 3.24 nM. Moreover, the Kd with Ntz-03 synthetic peptide amounted to 31.4 nM.
